Test system: T1, Minos transposase (Minos-2) (Drosophila hydei)
T1 sequence: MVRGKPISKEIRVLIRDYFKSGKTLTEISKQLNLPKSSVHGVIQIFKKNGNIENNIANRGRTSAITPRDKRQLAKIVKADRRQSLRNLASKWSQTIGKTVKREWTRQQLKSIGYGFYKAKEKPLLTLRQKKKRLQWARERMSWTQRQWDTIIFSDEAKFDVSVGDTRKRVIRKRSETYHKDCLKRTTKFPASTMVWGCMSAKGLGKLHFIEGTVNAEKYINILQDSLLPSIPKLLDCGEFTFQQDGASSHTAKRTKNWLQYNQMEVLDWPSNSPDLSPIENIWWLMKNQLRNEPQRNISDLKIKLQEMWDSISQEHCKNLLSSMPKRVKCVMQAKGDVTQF
Assay: cell_activity
Settings: HeLa stable transfectants vs transposon alone, experiment 1 (18-fold and 14.5-fold in experiments 2 and 3); source Minos copy of helper not stated; binding not …

“Minos transposon with both terminal inverted repeats, neo cargo (pMiLRneo)” showed an activity of 19 fold.

Source: patent publication US6225121
